This data set has as its target His-DDX39B (UniProt Q13838 1-428). Nature of the data set: EMSA; 0-300 ng protein; bound more than -1A; EMSA: bacterially expressed DDX39B, 32P probes, non-denaturing 5% acrylamide gel; binding buffer, salt, pH and temperature not given. Pull-down: U87 nuclear extract pre-cleared with non-specific biotin DNA, 2 h with probe. As to conditions: protein: recombinant; tags: N-terminal His (pET-45b, 5' polyhistidine); label: 32P (T4 PNK); blunt.

His-DDX39B, sequence (Q13838 whole entry): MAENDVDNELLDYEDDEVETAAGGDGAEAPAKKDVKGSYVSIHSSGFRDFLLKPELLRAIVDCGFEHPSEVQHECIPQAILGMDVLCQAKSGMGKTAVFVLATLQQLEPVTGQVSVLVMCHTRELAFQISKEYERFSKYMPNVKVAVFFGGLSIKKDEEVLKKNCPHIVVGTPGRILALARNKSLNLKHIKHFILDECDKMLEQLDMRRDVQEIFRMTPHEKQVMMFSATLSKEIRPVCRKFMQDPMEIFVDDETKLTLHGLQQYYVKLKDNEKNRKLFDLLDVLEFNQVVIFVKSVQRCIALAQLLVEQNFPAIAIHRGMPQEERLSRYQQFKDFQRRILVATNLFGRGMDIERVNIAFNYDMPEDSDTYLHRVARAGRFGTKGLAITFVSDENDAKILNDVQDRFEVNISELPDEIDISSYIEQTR

B1: -1C kB probe (dsDNA)
DNA 1: TCGAGTTAGATGGGGACTTTCCAGGCAC
DNA 2: GTGCCTGGAAAGTCCCCATCTAACTCGA
Turning to B1, the binding result is “binds”.

Values taken from paper PMC7093963, “DDX39B interacts with the pattern recognition receptor pathway to inhibit NF-κB and sensitize to alkylating chemotherapy”.
